In patent US20180271864:

Target: T1, Flag-tagged human PZR (UniProt O95297)
T1 sequence: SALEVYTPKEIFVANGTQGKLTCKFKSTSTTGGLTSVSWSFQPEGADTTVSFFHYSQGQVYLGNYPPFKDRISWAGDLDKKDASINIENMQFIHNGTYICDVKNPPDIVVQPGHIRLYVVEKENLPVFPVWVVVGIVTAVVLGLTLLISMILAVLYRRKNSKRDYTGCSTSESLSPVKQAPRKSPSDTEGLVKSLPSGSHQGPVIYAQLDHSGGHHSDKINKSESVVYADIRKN

Src recombinant protein
in vitro Src kinase assay, immunoblot with anti-pPZR (Y241 or Y263) antibodies: These results implicated c-Src as directly phosphorylating PZR at Shp2 binding sites
